Data: patent US20230159649A1, “METHODS AND COMBINATIONS FOR DUAL TARGETING OF TNF FAMILY MEMBERS” (La Jolla Institute for Immunology, priority 2020, published 2023)
Entries after “also recorded” stand apart in the source; their conditions may differ.

What was measured:
[1] = test system: airways of naïve mice; test: Injection of recombinant LIGHT / TL1A into the airways of naïve mice: airway remodeling; format: in vivo, mouse; details: for airway remodeling (accumulation of collagen, trichrome): 10 μg intratracheally on two consecutive days, day 3, rLIGHT in DR3−/− mice, rTL1A in LIGHT−/− mice; for remodeling in mice lacking T cells and ILCs: RAG and RAGγc−/− mice; for fibrosis and remodeling after injection of the recombinant protein alone (collagen, αSMA / smooth muscle, airway hyperresponsiveness): naïve mice, into the airways (or skin)
Method: Naïve mice were injected with PBS or 10 μg rLIGHT or rTL1A intratracheally on two consecutive days. On day 3, accumulation of collagen was analyzed in the airways with trichrome staining. (FIG. 3A) rLIGHT was injected into DR3−/− mice, or rTL1A into LIGHT−/− mice. (FIG. 3B) rLIGHT was combined with rTL1A (5 μg each), and the extent of collagen deposition scored as well as the extent of inflammation scored. (FIG. 3C) rLIGHT and rTL1A were injected into RAG−/− mice.
The inventors furthered these observations by testing whether LIGHT and TL1A could induce fibrosis and remodeling independently of other inflammatory activity, and of each other, by injecting the recombinant proteins into naïve mice. […] Moreover, the effects of LIGHT and TL1A were not reliant on the other cytokine shown by injection of the proteins into the respective knockout animals.

[2] = test system: human airway fibroblasts (HAF); test: Human airway fibroblasts (HAF) stimulated with rLIGHT or rTL1A with or without TGF-β; format: cell-based
Description: FIG. 9A-FIG. 9D illustrate LIGHT and TL1A induce inflammatory and remodeling activity in human airway fibroblasts (HAF). HAF were stimulated with rLIGHT or rTL1A with or without TGF-β. (FIG. 9A) Proliferation (left, thymidine incorporation) or αSMA mRNA (right) induced by LIGHT, TGF-β or both. (FIG. 9B) mRNA for select genes induced by LIGHT. (FIG. 9C) Collagen 13 and periostin protein (IF stain; DAPI is used for […]) and mRNA induced by TL1A. (FIG. 9D) Proliferation (left, thymidine incorporation) and αSMA mRNA (right) induced by TL1A, TGF-β, or their combination. Data individual cultures or means of triplicates. mRNA either fold increase over unstimulated cells or relative to GAPDH.
The inventors compare rTL1A to rLIGHT, titrating each molecule (5-100 ng/ml, their optimal dose range, see (60, 69)). The inventors perform kinetic analyses over 3 days (e.g. 4, 24, 48, 72 hr) and compare data from 4-6 individual cell populations. The inventors initially gain data with normal HAF. […] The inventors additionally have shown that rTL1A can promote activities in HAF that might overlap with, but also be distinct from, LIGHT (FIGS. 9C and 9D).

[3] = test system: normal human bronchial epithelial cells (HBE); test: Human bronchial epithelial cells (HBE) stimulated with rLIGHT or rTL1A; format: cell-based; details: for periostin and TSLP expression (IF staining): 48 hrs
Description: HBE were stimulated with rLIGHT without (black bars) or with (gray bars) budesonide. Data are mean fold increase in mRNA over unstimulated cells after 3 days, measured by RT-PCR. Steroid sensitivity was arbitrarily set at >75% inhibition of the LIGHT-induced response, indicated to the left of the thick dotted lines.
HBE were stimulated with rLIGHT (left) or rTL1A (right) for 48 hrs and expression of periostin and TSLP examined by IF staining.

[4] = test system: lung fibroblasts; test: Lung fibroblasts stimulated with rTL1A or rLIGHT; format: cell-based
[5] = test system: airways of naïve mice; test: Injection of recombinant LIGHT / TL1A into the airways of naïve mice: airway remodeling; format: in vivo, mouse; details: 10 μg intratracheally on two consecutive days, day 3
[6] = test system: normal human epidermal keratinocytes; test: Human epidermal keratinocytes stimulated with rLIGHT or rTL1A; format: cell-based; details: for NF-κB activation (p-p65/RelA): keratinocytes, 25 ng/ml rTL1A or PBS
Method: FIG. 2A-FIG. 2C illustrate LTβR, HVEM, and DR3 are co-expressed or active in lung epithelial cells and fibroblasts, and keratinocytes and dermal fibroblasts. Cultured normal human bronchial epithelial cells and lung fibroblasts, and epidermal keratinocytes and dermal fibroblasts, were stained for expression of (FIG. 2A) LTβR and HVEM, (FIG. 2B) DR3 (isotype controls, gray), or (FIG. 2C) p-p65/RelA NF-κB after culture with 25 ng/ml rTL1A or PBS. Data representative of 2-4 experiments each.
Experimental Design: 1.1. LIGHT and TL1A co-operate to promote hyperplasia and inflammatory features in human keratinocytes: Firstly, the inventors test how signaling from LIGHT and TL1A directly regulate keratinocytes in vitro. Studies are performed with titrated doses of rLIGHT or rTL1A (0.1-100 ng/ml) vs. PBS, added to normal human epidermal keratinocytes from a minimum of 4 donors (obtained from Lonza) with kinetic analyses, as described previously (7, 8). LIGHT and TL1A have maximal activity in the range 20-100 ng/ml, similar to IL-13 or IL-17. […] The inventors control for specificity with siRNA knockdown of DR3, and then determine synergistic or additive activities, cross-titrating rLIGHT together with rTL1A and measure the extent of cell division and growth. The inventors also test if co-operation is at the level of the receptors (e.g. TL1A enhances expression of the LIGHT receptors).

[7] = test system: dermal fibroblasts; test: Dermal fibroblasts stimulated with rLIGHT; format: cell-based, human; details: preliminary studies
Description: LIGHT and TL1A synergistic in driving proliferation and inflammatory activity in dermal fibroblasts: The inventors determine inflammatory events that are triggered by LIGHT and TL1A in normal human dermal fibroblasts, using cells from a minimum of 4 donors, with kinetic analyses. The inventors find that both LIGHT and TL1A induce fibroblast proliferation, and may have differential abilities to induce myofibroblast differentiation. […] The inventors also test a range of inflammatory factors relevant to AD or psoriasis that have receptors on fibroblasts (e.g. LIGHT, IL-13, TGF-β, FGF, TNF, IL-17) to determine if they can promote DR3.

[8] = test system: skin of naïve mice; test: Subcutaneous / intradermal injection of recombinant LIGHT into mice: skin fibrosis and inflammation; format: in vivo, mouse
Description: Masson trichrome (collagen), alpha Smooth muscle actin (αSMA) and TSLP immunofluorescent staining of skin sections. The data is representative of 6 to 10 mice per group.
Diseases such as atopic dermatitis (AD) and psoriasis present with extensive tissue remodeling, features shared with diseases of the lungs, such as severe asthma. The inventors have shown that a genetic deficiency in the TNF superfamily molecule LIGHT (TNFSF14, CD258), and blocking LIGHT binding to its receptors, reduced remodeling in the lungs in mouse models of severe asthma and systemic sclerosis (1, 2). […] LIGHT interacts with the TNF superfamily receptors HVEM (herpesvirus entry mediator, TNFRSF14) and LTβR (lymphotoxin beta receptor, TNFRSF3), and TL1A with DR3 (TNFRSF25) (4-6). The studies disclosed herein investigate the combination use of LIGHT and TL1A to control skin tissue remodeling relevant to AD and psoriasis, directly driving deregulated activity in keratinocytes and dermal fibroblasts. In support, the inventors have reported that LIGHT-deficient mice were protected from developing skin inflammation in models of scleroderma (7) and allergen-induced AD (8). […] The inventors have observed that the absence of TL1A/DR3 interactions also markedly limits disease in the same models of AD and psoriasis, and that keratinocytes and fibroblasts co-express DR3 together with the receptors for LIGHT. The inventors determine that LIGHT and TL1A are effectors of skin pathology through driving epidermal hyperplasia and remodeling molecules such as collagen, periostin, and alpha smooth muscle actin in keratinocytes and/or fibroblasts. Through production of other factors such as TSLP, IL-33, and chemokines in these structural cells, LIGHT and TL1A maintain disease through orchestrating immune inflammatory cells in the skin.

rTL1A: recombinant TL1A (TNFSF15) protein [reference compound]
airway remodeling (accumulation of collagen, trichrome) [1]: promote airway remodeling | remodeling in mice lacking T cells and ILCs [1]: induced remodeling | fibrosis and remodeling after injection of the recombinant protein alone (collagen, αSMA / smooth muscle, airway hyperresponsiveness) ([1]; listed as TL1A): substantial collagen deposition and αSMA accumulation; also recorded: induced a fibroproliferative syndrome | fibrosis and remodeling after injection of the recombinant protein alone (collagen, αSMA / smooth muscle, airway hyperresponsiveness) ([1]; listed as recombinant TL1A): rapidly promotes smooth muscle alterations, collagen deposition, and airway hyperresponsiveness | collagen 13 and periostin protein and mRNA [2]: promoting collagen 13 and periostin | proliferation of HAF (thymidine incorporation) ([2]; protein alone): induced proliferation | proliferation of HAF in combination with TGF-β ([2]; with TGF-β): augmented by TGF-β | αSMA mRNA in combination with TGF-β ([2]; with TGF-β): enhanced TGF-β driven αSMA | periostin and TSLP expression (IF staining) [3]: promotes fibrotic activity | periostin and TSLP expression (IF staining) ([3]; listed as TL1A): upregulated | periostin and collagen in lung fibroblasts ([4]; protein alone): induced periostin and collagen | proliferation of lung fibroblasts ([4]; protein alone): induced proliferation | αSMA in lung fibroblasts ([4]; protein alone): not αSMA | proliferation and αSMA together with TGF ([4]; with TGF-α as printed): synergized with TGF-α | αSMA expression in airways [5]: upregulated | NF-κB activation (p-p65/RelA) [6]: enhanced NF-κB activation | NF-κB activation (p-p65/RelA) ([6]; listed as TL1A): induce NF-κB activation

B1: rLIGHT: recombinant LIGHT (TNFSF14) protein (protein)
chain: DGPAGSWEQLIQERRSHEVNPAAHLTGANSSLTGSGGPLLWETQLGLAFLRGLSYHDGALVVTKAGYYYIYSKVQLGGVGCPLGLASTITHGLYKRTPRYPEELELLVSQQSPCGRATSSSRVWWDSSFLGGVVHLEAGEKVVVRVLDERLVRLRDGTRSYFGAFMV
airway remodeling (accumulation of collagen, trichrome) [1]: promote airway remodeling | remodeling in mice lacking T cells and ILCs [1]: induced remodeling | fibrosis and remodeling after injection of the recombinant protein alone (collagen, αSMA / smooth muscle, airway hyperresponsiveness) [1]: reproduce this fibrotic activity | fibrosis and remodeling after injection of the recombinant protein alone (collagen, αSMA / smooth muscle, airway hyperresponsiveness) ([1]; listed as LIGHT): rapidly promotes smooth muscle alterations, collagen deposition, and airway hyperresponsiveness; also recorded: substantial collagen deposition and αSMA accumulation; also recorded: increases the accumulation of collagen and alpha-SMA; also recorded: induced a fibroproliferative syndrome | collagen 13 and periostin protein and mRNA [2]: the former shared with LIGHT but not the latter | myofibroblast differentiation (upregulation of αSMA mRNA) ([2]; protein alone): cannot drive myofibroblast differentiation | proliferation of HAF (thymidine incorporation) ([2]; protein alone): promote proliferation | adhesion molecules, chemokines, cytokines and metalloproteases mRNA ([2]; through the LTβR, siRNA knockdown): induced | TSLP, periostin and αSMA expression [7]: upregulated TSLP, periostin, and αSMA | periostin and TSLP expression (IF staining) [3]: upregulated | expression of adhesion molecules, proteinases, cytokines and chemokines (mRNA, RT-PCR), steroid sensitivity ([3]; 3 days, without or with budesonide): induce expression; also recorded: promotes steroid-resistant responses | chemokines (CCL5, CCL20 CXCL5 CXCL11) in lung fibroblasts [4]: upregulated some chemokines | αSMA expression in airways [5]: upregulated | induction of TSLP and periostin from keratinocytes [6]: induce molecules from keratinocytes | proliferation/hyperplasia of human keratinocytes ([6]; via both HVEM and LTβR): induce proliferation/hyperplasia | skin fibrosis and remodeling (trichrome, αSMA, TSLP staining) ([8]; WT mice, intradermal injection, 20 μg/mouse vs PBS): induces scleroderma; also recorded: induces skin fibrosis and remodeling | cytokines and chemokines induced in vivo ([8]; injected s.c. into mice): induced the cytokines IL-33 and IL-25; also recorded: inducing several chemokines | skin disease features after subcutaneous injection ([8]; naïve mice, subcutaneous injection): induced features of AD, scleroderma, and psoriasis
